Bridge positions count the residues as written; N and C are the ends. Ends that are not written are not given here.
T1: ovalbumin (Gallus gallus, UniProt P01012)
T1 construct: purchased Sigma A5378
T1 sequence (P01012 1-386): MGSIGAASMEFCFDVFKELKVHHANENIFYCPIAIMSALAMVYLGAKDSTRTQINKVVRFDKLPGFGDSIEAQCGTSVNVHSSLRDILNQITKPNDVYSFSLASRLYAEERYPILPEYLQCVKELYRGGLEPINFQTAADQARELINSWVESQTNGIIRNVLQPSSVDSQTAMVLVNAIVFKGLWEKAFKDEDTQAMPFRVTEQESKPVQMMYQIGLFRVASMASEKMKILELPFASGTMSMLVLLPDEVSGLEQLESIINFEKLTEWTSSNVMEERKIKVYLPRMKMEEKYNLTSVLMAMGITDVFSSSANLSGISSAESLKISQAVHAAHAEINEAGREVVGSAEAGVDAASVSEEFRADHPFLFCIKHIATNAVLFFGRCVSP

T2: ovalbumin (negative control antigen) (UniProt P01012 2-386)
T2 construct: Bought protein
T2 sequence (looked up): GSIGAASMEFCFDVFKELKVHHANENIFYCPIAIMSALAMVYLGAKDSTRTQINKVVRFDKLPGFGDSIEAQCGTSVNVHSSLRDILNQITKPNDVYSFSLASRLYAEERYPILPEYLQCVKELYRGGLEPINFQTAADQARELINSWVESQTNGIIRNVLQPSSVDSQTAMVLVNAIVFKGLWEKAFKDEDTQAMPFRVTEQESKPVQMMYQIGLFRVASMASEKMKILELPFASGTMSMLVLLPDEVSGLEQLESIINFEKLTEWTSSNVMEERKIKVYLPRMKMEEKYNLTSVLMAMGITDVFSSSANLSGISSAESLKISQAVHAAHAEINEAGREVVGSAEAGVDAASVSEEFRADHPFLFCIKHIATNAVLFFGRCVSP

B1: 2D3-GlySer-17D12(S): 17D12 peptide (FR3 Cys replaced with Ser) fused at the C-terminus of VHH 2D3 via a Gly4Ser-Gly3Ser linker, expressed on pIII of M13 phage (other, not shown: large carriers)
chain: GGGGSGGGSDTAVYYSNAAASYSDYDVFGGGTDFGPWGQGTQV
modifications: not fully specified (N-terminus); also: fused to C-terminus of VHH 2D3, displayed on M13 pIII
notes: VHH-peptide fusion tested as phage; also called VHH-GlySer-17D12(S)
B2: 2D3-17D12(S): 17D12 peptide (FR3 Cys replaced with Ser) fused at the C-terminus of VHH 2D3 without linker, expressed on pIII of M13 phage (other, not shown: large carriers)
chain: DTAVYYSNAAASYSDYDVFGGGTDFGPWGQGTQV
modifications: not fully specified (N-terminus); also: fused to C-terminus of VHH 2D3, displayed on M13 pIII
notes: VHH-peptide fusion tested as phage; also called VHH-17D12(S)
B3: 17D12-CDR3-C, constrained truncated CDR3 loop of 17D12 without flanking FR, expressed on pIII of M13 phage (peptide, not shown: large carriers)
peptide: CAAASYSDYDVFGGGTDFGPAC
modifications: disulfide 1-22; not fully specified
notes: Tested as phage; also called constrained truncated peptide

How the values were obtained:
[1] = molecular target: T3, human serum albumin (HSA) (Homo sapiens, UniProt P02768); test: Phage binding assay: peptide expressed on pIII of M13 phage, on coated HSA (anti-M13 detection, Odyssey read-out); settings: for Binding to HSA (Example 7, VHH fusions on phage): 1/2 dilution series starting with 10^12 phages/mL; for Binding to HSA (Example 4): 1/2 dilution series starting with 7.5×10^11 phages/mL; for Binding to HSA (Example 5, cross-reactivity): different phage concentrations
T3 construct: purchased Sigma A5763
Description: (§1) After two selection rounds, monoclonal phage were screened for binding on HSA versus negative control antigen, ovalbumin (A5378, Sigma). Wells of a Maxisorp microtiter plate (Nunc) were coated using 10 μg/mL HSA or ovalbumin and blocked with SuperBlock T20 PBS Blocking Buffer (Pierce) to prevent non-specific binding. Phages, produced in 96-well plate, were diluted 1/10 in 1:1 (v:v) Superblock T20 PBS Blocking Buffer:PBS+0.05% Tween-20 and incubated on both HSA and ovalbumin. Bound phages were detected using anti-M13 (GE Healthcare) and goat anti-mouse IRDye700 (Rockland) and signals were read-out on Odyssey (LI-COR Biosciences). […] Both ‘hits’ were selected from the same library, i.e. originating from llama 117 in the non-constrained format. […] This peptide is referred to as 17D12. Its full amino acid sequence is given in SEQ ID NO: 1, and its encoding nucleotide sequence is given in SEQ ID NO:2. The amino acid sequence of the CDR3 loop is given in SEQ ID NO:3.
(§2) The phage binding assay was performed essentially as described in example 3. Phages, produced in 10 mL culture volume, were incubated on both HSA and ovalbumin in a ½ dilution series, starting with 7.5×10^11 phages/mL. […] Non-specific binding to ovalbumin is slightly higher for the constrained truncated peptide.
(§3) Binding of 17D12, as selected from primary screening after 2 selection rounds on HSA, to serum albumin of different species [mouse serum albumin (MSA, A3559, Sigma), cynomolgus serum albumin (CSA, in-house production), bovine serum albumin (BSA, A6003, Sigma) and HSA] and to negative control antigens [ovalbumin, human tumor necrosis factor α (TNF, in-house production)] was assessed using different phage concentrations. Additionally, similar binding studies were performed with two truncated variants of 17D12. Both peptides, i.e. 17D12-CDR3-NC (SEQ ID NO: 26) and 17D12-CDR3-C (SEQ ID NO;27), lack the flanking FR residues of 17D12 and the former is a non-constrained loop, whereas the latter is constrained (FIG. 4).
(§4) The phage binding assay was performed essentially as described in example 4.
(§5) The phage binding assay to HSA and ovalbumin was performed essentially as described in example 4. Phages, produced in 10 mL culture volume, were incubated on both HSA and ovalbumin in a ½ dilution series, starting with 10^12 phages/mL.

ovalbumin = molecular target: T1, ovalbumin; test: Phage binding assay on coated negative control antigen ovalbumin; settings: for Binding to negative control ovalbumin (Example 7): 1/2 dilution series starting with 10^12 phages/mL; for Binding to negative control ovalbumin (Example 4): 1/2 dilution series starting with 7.5×10^11 phages/mL; for Non-specific binding to irrelevant protein ovalbumin (Example 5): different phage concentrations
Description: as §1, §2, §3, §4, §5

[2] = molecular target: T4, cynomolgus serum albumin (CSA) (Macaca fascicularis, UniProt A2V9Z4); test: Phage binding assay, cross-reactivity to cynomolgus serum albumin; settings: different phage concentrations
T4 construct: made in house
Description: as §1, §3, §4

[3] = molecular target: T5, mouse serum albumin (MSA) (Mus musculus, UniProt P07724); test: Phage binding assay, cross-reactivity to mouse serum albumin; settings: different phage concentrations
T5 construct: purchased Sigma A3559
Description: as §1, §3, §4

[4] = molecular target: T6, bovine serum albumin (BSA) (Bos taurus, UniProt P02769); test: Phage binding assay, cross-reactivity to bovine serum albumin; settings: different phage concentrations
T6 construct: purchased Sigma A6003
Description: as §1, §3, §4

[5] = molecular target: T7, human tumor necrosis factor α (TNF) (Homo sapiens, UniProt P01375); test: Phage binding assay, specificity against negative control antigen TNF; settings: different phage concentrations
T7 construct: made in house
Description: as §1, §3, §4

[6] = molecular target: T2, ovalbumin (negative control antigen); test: phage binding assay: ovalbumin coated on Maxisorp, M13 phage in 1/2 dilution series from 10^12 phages/mL, Odyssey intensity
Description: The phage binding assay to HSA and ovalbumin was performed essentially as described in example 4. Phages, produced in 10 mL culture volume, were incubated on both HSA and ovalbumin in a ½ dilution series, starting with 10¹² phages/mL. Dose-dependent binding to HSA was retained upon fusion of the peptide 17D12 at the C-terminus of a non-albumin binding intact VHH in the presence or absence of a GlySer linker (FIG. 9).

mouse serum albumin = molecular target: T8, mouse serum albumin (mouse, UniProt P07724 25-608); test: phage binding assay on coated Maxisorp wells, 5 phage dilutions per peptide, Odyssey image
T8 construct: also called MSA
Description: as §3
(§6) The phage binding assay was performed essentially as described in example 4. Full length 17D12 peptide as well as truncated peptides, 17D12-CDR3-NC and 17D12-CDR3-C, bind dose-dependently to HSA and CSA, whereas reactivity to MSA and BSA was not apparent in the assay performed (FIG. 6). There is no significant non-specific binding of 17D12 and 17D12-CDR3-NC to irrelevant proteins tested (ovalbumin and TNF). In contrast, there is a subtle degree of non-specific binding with the constrained truncated peptide.

bovine serum albumin = molecular target: T9, bovine serum albumin (bovine, UniProt P02769 25-607); test: as above
T9 construct: also called BSA
Description: as §3, §6

cynomolgus serum albumin = molecular target: T10, cynomolgus serum albumin (cynomolgus, UniProt A2V9Z4 25-608); test: phage binding assay on coated Maxisorp wells, 5 phage dilutions per peptide (concentrations not given), Odyssey image
T10 construct: also called CSA; cynoSA
Description: as §3, §6

human serum albumin = molecular target: T11, human serum albumin (human, UniProt P02768 25-609); test: phage binding assay: 10 µg/mL HSA coated on Maxisorp, M13 phage displaying the peptide on pIII in 1/2 dilution series, anti-M13 + goat anti-mouse IRDye700, Odyssey intensity
T11 construct: Bought protein; also called HSA
Description: After two selection rounds, monoclonal phage were screened for binding on HSA versus negative control antigen, ovalbumin (A5378, Sigma). Wells of a Maxisorp microtiter plate (Nunc) were coated using 10 μg/mL HSA or ovalbumin and blocked with SuperBlock T20 PBS Blocking Buffer (Pierce) to prevent non-specific binding. Phages, produced in 96-well plate, were diluted 1/10 in 1:1 (v:v) Superblock T20 PBS Blocking Buffer:PBS+0.05% Tween-20 and incubated on both HSA and ovalbumin. Bound phages were detected using anti-M13 (GE Healthcare) and goat anti-mouse IRDye700 (Rockland) and signals were read-out on Odyssey (LI-COR Biosciences). […] This peptide is referred to as 17D12. Its full amino acid sequence is given in SEQ ID NO: 1, and its encoding nucleotide sequence is given in SEQ ID NO:2. The amino acid sequence of the CDR3 loop is given in SEQ ID NO:3.
as §2, with “7.5×10¹¹” for “7.5×10^11”

T6 sequence (P02769 25-607): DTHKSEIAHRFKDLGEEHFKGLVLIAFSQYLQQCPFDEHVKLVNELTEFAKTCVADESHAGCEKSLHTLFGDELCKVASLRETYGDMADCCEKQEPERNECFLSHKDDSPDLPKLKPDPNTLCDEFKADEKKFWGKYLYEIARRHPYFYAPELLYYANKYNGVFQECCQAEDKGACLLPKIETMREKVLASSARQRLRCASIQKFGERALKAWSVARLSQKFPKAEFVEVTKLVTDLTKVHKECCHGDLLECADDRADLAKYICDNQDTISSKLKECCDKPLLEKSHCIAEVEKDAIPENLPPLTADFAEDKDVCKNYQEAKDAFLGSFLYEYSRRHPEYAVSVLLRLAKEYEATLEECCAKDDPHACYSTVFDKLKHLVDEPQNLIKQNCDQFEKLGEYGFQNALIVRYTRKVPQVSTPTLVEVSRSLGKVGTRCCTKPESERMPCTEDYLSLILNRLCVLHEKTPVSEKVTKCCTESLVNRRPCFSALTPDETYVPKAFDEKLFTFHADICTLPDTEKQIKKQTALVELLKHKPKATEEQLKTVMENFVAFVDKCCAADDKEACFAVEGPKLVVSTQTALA
T4 sequence (A2V9Z4 25-608): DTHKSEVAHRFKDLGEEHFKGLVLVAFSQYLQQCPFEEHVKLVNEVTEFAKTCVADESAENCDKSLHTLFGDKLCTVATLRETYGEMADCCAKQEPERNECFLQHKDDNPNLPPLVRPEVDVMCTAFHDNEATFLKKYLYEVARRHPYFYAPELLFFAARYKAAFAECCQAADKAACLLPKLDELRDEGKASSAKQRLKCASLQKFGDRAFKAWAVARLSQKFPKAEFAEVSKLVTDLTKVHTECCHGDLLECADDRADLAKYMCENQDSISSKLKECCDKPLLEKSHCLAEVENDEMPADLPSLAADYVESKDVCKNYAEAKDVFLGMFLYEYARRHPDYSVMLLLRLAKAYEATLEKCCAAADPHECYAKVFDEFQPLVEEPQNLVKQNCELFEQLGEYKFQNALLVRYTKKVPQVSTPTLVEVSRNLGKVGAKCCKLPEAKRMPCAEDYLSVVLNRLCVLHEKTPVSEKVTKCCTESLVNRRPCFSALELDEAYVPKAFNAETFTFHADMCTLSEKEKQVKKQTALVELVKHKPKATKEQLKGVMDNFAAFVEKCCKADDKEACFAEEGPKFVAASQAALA
T7 sequence (P01375 77-233 limits assumed): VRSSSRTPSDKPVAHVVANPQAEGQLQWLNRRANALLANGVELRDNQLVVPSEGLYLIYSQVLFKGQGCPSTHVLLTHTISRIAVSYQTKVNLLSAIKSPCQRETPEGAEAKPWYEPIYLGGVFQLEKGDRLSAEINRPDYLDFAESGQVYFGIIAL
T5 sequence (P07724 25-608): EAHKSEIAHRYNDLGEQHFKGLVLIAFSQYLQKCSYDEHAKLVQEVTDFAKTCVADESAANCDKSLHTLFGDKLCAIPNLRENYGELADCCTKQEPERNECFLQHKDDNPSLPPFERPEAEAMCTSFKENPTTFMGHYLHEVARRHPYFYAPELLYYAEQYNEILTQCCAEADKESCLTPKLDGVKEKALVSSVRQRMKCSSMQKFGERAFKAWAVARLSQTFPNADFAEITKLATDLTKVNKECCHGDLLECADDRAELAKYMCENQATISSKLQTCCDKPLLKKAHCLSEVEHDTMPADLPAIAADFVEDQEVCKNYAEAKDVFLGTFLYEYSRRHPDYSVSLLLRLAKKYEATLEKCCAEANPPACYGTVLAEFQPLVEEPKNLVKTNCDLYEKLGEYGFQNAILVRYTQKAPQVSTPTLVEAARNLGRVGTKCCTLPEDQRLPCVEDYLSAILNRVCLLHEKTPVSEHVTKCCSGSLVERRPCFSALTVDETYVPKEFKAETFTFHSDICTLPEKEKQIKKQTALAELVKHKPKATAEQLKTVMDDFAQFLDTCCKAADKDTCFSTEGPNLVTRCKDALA
T9 sequence (P02769 25-607 limits assumed): as the sequence (P02769 25-607) above
T10 sequence (A2V9Z4 25-608 limits assumed): as the sequence (A2V9Z4 25-608) above
T8 sequence (P07724 25-608 limits assumed): as the sequence (P07724 25-608) above

Molecule | Binding to HSA (Example 7, VHH fusions on phage) [1] | Binding to negative control ovalbumin (Example 7) (ovalbumin) | Binding to HSA (Example 4) [1] | Binding to HSA (Example 5, cross-reactivity) [1] | Binding to negative control ovalbumin (Example 4) (ovalbumin) | Non-specific binding to irrelevant protein ovalbumin (Example 5) (ovalbumin) | Binding to CSA [2] | Reactivity to MSA [3] | Reactivity to BSA [4] | Non-specific binding to irrelevant protein TNF [5] | also measured
2D3-17D12(S): 17D12 (FR3 Cys replaced with Ser) fused at C-terminus of VHH 2D3 without linker, on M13 phage (DTAVYYSNAAASYSDYDVFGGGTDFGPWGQGTQV; not fully specified (N-terminus); also: displayed on M13 phage) | bind dose-dependently to HSA | not to negative control peptide, ovalbumin | – | – | – | – | – | – | – | – | –
2D3-GlySer-17D12(S): 17D12 (FR3 Cys replaced with Ser) fused at C-terminus of VHH 2D3 via Gly4Ser-Gly3Ser linker, on M13 phage (GGGGSGGGSDTAVYYSNAAASYSDYDVFGGGTDFGPWGQGTQV; not fully specified (N-terminus); also: displayed on M13 phage) | bind dose-dependently to HSA | not to negative control peptide, ovalbumin | – | – | – | – | – | – | – | – | –
aaasysdydvfgggtdfgpa (AAASYSDYDVFGGGTDFGPA; also: displayed on M13 pIII) [17D12-CDR3-NC, truncated 17D12 lacking flanking FR residues, non-constrained loop, on M13 phage] | – | – | bind dose-dependently to HSA | bind dose-dependently | not to negative control peptide, ovalbumin | no significant non-specific binding | bind dose-dependently | not apparent | not apparent | no significant non-specific binding | –
caaasysdydvfgggtdfgpac (CAAASYSDYDVFGGGTDFGPAC; disulfide 1-22 (inferred); also: displayed on M13 phage pIII) [17D12-CDR3-C, truncated 17D12 lacking flanking FR residues, constrained loop, on M13 phage] | – | – | bind dose-dependently to HSA | bind dose-dependently | not to negative control peptide, ovalbumin | subtle degree of non-specific binding | bind dose-dependently | not apparent | not apparent | subtle degree of non-specific binding | –
dtavyycnaaasysdydvfgggtdfgpwgqgtqv (DTAVYYCNAAASYSDYDVFGGGTDFGPWGQGTQV; also: displayed on M13 pIII; listed as Lama glama) [17D12] | bind dose-dependently to HSA | not to negative control peptide, ovalbumin | bind dose-dependently to HSA | bind dose-dependently | not to negative control peptide, ovalbumin | no significant non-specific binding | bind dose-dependently | not apparent | not apparent | no significant non-specific binding | Binding of monoclonal phage to HSA (screening) ([1]; screening after two selection rounds on HSA, phages diluted 1/10, signal/background ratio very low): bind to HSA; Binding of monoclonal phage to ovalbumin (screening) (ovalbumin; screening after two selection rounds on HSA, phages diluted 1/10): not to ovalbumin
B1 | – | – | – | – | – | – | – | – | – | – | binding result [6]: no binding (tested: 100 x10^10 phage/mL)
B2 | – | – | – | – | – | – | – | – | – | – | binding result [6]: no binding (tested: 100 x10^10 phage/mL)
B3 | – | – | – | – | – | – | – | – | – | – | binding result (mouse serum albumin): no binding; binding result (bovine serum albumin): no binding; binding result (cynomolgus serum albumin): binds; EC50 (read off the curve) (human serum albumin): ~6e+10 phage/mL
